Numbering of substitutions follows the chain as printed.

In test [1] the target is T1, CTLA4-Fc (human, UniProt P16410 36-161, limits assumed).
T1 construct: not shown: Fc; not specified
The test is described as follows: ELISA: modified antibody (concentration on the axis) captured on SIRPa-His, then CTLA4-Fc, detected with mouse anti-human CTLA4 [panel CD80].

The target in test [2] is T2, recombinant hSIRPa (Sino Biologicals, reference 11612-H08H) (human, UniProt P78324 31-370).
T2 construct: also called SIRPa-His; human SIRPa-His; not shown: His tag (histidine tail)
The test is described as follows: ELISA on immobilized SIRPa-His, peroxidase anti-human IgG, DO 450nm [panel CD80]. As to the method: (§1) Method: For ELISA assay, recombinant hSIRPa (Sino Biologicals, Beijing, China; reference 11612-H08H) was immobilized on plastic at 0.5 μg/ml in carbonate buffer (pH9.2) and different modified anti-SIRPa antibodies were added to measure binding to SIRPa.
(An ELISA detects its analyte on a solid surface through an enzyme-linked reagent.)

Test [3] deals with T3, OX40Fc (human, UniProt P43489 29-216).
T3 construct: not shown: Fc; not specified
T3 sequence (looked up): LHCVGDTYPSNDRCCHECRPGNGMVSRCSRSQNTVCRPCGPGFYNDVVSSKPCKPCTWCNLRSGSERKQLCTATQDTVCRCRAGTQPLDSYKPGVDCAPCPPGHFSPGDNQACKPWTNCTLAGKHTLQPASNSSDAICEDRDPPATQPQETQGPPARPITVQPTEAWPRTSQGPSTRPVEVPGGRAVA
The test is described as follows: ELISA: modified antibody (concentration on the axis) captured on SIRPa-His, then OX40Fc, detected with mouse anti-human OX40 [panel OX40L]. An excerpt: FIG. 24. Ligand binding assay with the different modified anti-SIRPa antibodies by ELISA.

The target in test [4] is T2, recombinant hSIRPa (Sino Biologicals, …). The test is described as follows: ELISA on immobilized SIRPa-His, peroxidase anti-human IgG, DO 450nm [panel OX40L]. As to the method:
as §1

For test [5] the target is unchanged. The test is described as follows: SPR (Biacore); SIRPa-His immobilized on CM5 chip, antibody injected. The procedure:
FIG. 2. Affinity analysis by Biacore of anti-SIRP antibodies on human SIRPa recombinant protein. SIRPa-His recombinant protein was immobilized onto a CM5 chip at 5 μg/ml (500 RU) and the indicated antibodies were added at different concentration.
Method: Recombinant hSIRPa (Sino Biologicals, Beijing, China; reference 11612-H08H) was immobilized into a CM5 sensor chip (GeHealthcare; France) at 5 μg/ml (500 RU) and antibodies were applied at different concentrations with a flow rate of 40 μl/min. Analysis was performed with a BIAcore 3000 (Biacore, GeHealthcare).

Test [6] deals with T4, recombinant hSIRPg-His (Sino Biologicals, reference 11828-H08H) (human, UniProt Q9P1W8 29-360).
T4 construct: also called human SIRPg-His; not shown: His tag
The test is described as follows: BLI (Blitz); SIRPg-His on Ni-NTA biosensor, antibody at 10 ug/ml or 20 ug/ml (Example 9) [B, table A]. As to the method:
FIG. 8. (A) Affinity analysis by Blitz of anti-SIRP antibodies on human SIRPg recombinant protein. SIRPg-His recombinant protein was immobilized onto a NINTA biosensor and the indicated antibodies were added at 10 μg/ml. […] (B) Binding analysis by ELISA assay of anti-SIRP antibodies on SIRPg (human SIRPg-His coating and anti-human kappa detection).
(§2) Method: This method was performed with a Blitz (Forte Bio; USA; reference C22-2 No 61010-1). Recombinant hSIRPg-His (Sino Biologicals, Beijing, China; reference 11828-H08H) was immobilized at 10 μg/ml by histidine tail into a Ni-NTA biosensor (Forte Bio; USA; reference 18-0029) for 30 seconds. Then, an anti-SIRPa antibody was associated at 20 μg/mL for 120 seconds. The dissociation of anti-SIRPa antibody was made in kinetics buffer for 120 seconds. Analysis of data was made with the Blitz pro 1.2 software, which calculated association constant (ka) and dissociation constant (kd) and determined the affinity constant KD […].

Test [7] deals with T2, recombinant hSIRPa (Sino Biologicals, …). The test is described as follows: ELISA on immobilized hSIRPa-His, anti-human IgG detection, first experiment; first experiment. As to the method: (§3) Method: The binding activity of the anti-SIRPa antibodies was assessed by ELISA.
Test [8] has the same target. The test is described as follows: ELISA on immobilized hSIRPa-His, anti-human IgG detection, second experiment. As to the method:
as §3

Test [9] has as its target T5, recombinant hSIRPb-His (Antibodies-online, reference ABIN3077231) (human, UniProt Q5TFQ8 30-371).
T5 construct: also called SIRPb-His (Blitz); not shown: His tag
The test is described as follows: BLI (Blitz); SIRPb-His on Ni-NTA biosensor, antibody at 20 ug/ml [B, table A]. As to the method: FIG. 7. (A) Affinity analysis by Blitz of anti-SIRP antibodies on human SIRPb recombinant protein. SIRPb-His recombinant protein was immobilized onto a NINTA biosensor and the indicated antibodies were added at 20 μg/ml. […] (B) Binding analysis of anti-SIRP antibodies (human SIRPb-His coating and anti-human kappa detection).
as §2, with “hSIRPb-His (Antibodies-online; USA;” for “hSIRPg-His (Sino Biologicals, Beijing, China;”, “ABIN3077231)” for “11828-H08H)”

In test [10] the target is T2, recombinant hSIRPa (Sino Biologicals, …). The test is described as follows: competition ELISA on immobilized SIRPa-His; competitor biotinylated CD47-Fc at 6 ug/ml, streptavidin-peroxidase [second experiment table]. As to the method:
Method: For competitive ELISA assay, recombinant hSIRPa (Sino Biologicals, Beijing, China; reference 11612-H08H) was immobilized on plastic at 0.5 μg/ml in carbonate buffer (pH9.2).

Test [11] shares this target. The test is described as follows: ELISA on immobilized hSIRPa-His, anti-human IgG detection, third experiment. The procedure:
as §3

T2 sequence (P78324 31-370 limits assumed): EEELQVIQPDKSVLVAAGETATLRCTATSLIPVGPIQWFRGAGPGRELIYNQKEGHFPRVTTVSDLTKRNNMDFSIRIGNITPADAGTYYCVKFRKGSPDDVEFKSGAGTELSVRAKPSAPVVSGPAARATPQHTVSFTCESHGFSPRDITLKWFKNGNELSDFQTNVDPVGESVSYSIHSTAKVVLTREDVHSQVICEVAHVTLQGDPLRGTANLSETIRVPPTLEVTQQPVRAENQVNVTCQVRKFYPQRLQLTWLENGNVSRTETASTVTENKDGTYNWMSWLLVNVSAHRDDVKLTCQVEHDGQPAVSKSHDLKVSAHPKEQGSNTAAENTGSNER
T4 sequence (Q9P1W8 29-360 limits assumed): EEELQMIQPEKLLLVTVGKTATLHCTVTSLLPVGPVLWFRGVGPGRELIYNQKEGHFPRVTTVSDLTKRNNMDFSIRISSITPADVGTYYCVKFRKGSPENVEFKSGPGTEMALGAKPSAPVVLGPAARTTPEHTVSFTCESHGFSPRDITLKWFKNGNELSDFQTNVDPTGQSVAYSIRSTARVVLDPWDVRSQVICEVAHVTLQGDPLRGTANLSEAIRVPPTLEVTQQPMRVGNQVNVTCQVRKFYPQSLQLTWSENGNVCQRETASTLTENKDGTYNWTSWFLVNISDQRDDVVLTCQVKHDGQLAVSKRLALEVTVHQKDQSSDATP
T5 sequence (Q5TFQ8 30-371): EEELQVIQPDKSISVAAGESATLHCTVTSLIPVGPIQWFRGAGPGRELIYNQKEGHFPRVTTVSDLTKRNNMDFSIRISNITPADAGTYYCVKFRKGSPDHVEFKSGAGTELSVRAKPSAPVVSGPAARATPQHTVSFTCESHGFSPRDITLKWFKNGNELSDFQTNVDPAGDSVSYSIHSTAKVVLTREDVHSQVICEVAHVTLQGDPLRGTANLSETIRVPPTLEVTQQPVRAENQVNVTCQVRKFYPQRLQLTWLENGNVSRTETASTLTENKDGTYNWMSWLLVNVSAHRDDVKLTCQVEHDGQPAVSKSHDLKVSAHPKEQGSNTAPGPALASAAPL
T1 sequence (P16410 36-161 limits assumed): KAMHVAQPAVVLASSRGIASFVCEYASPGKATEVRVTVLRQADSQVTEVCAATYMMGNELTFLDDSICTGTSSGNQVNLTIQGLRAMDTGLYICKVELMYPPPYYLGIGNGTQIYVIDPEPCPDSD

B1: modified anti-SIRPa HEFLB antibody with ECD of CD80 on the heavy chain (antibody, human IgG4 S228P, kappa)
heavy: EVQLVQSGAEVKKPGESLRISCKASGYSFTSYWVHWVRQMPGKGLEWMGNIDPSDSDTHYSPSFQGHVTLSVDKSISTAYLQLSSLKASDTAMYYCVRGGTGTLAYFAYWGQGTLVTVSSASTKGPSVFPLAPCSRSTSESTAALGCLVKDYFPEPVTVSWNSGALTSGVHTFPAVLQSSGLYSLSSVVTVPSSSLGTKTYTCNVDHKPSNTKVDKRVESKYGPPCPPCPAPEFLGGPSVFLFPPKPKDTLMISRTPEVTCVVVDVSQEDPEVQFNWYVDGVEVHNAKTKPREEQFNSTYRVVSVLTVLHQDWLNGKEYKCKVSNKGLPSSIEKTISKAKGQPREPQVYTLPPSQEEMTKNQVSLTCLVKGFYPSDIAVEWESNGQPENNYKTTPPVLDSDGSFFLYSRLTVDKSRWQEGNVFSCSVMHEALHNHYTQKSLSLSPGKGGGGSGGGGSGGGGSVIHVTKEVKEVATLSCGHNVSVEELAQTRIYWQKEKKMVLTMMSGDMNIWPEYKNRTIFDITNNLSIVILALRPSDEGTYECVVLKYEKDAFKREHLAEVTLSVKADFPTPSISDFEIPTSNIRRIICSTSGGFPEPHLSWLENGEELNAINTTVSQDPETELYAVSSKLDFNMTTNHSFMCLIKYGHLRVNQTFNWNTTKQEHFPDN
light: DVVMTQSPLSLPVTLGQPASISCRSSQSLVHSYGNTYLYWFQQRPGQSPRLLIYRVSNRFSGVPDRFSGSGSGTDFTLKISRVEAEDVGVYYCFQGTHVPYTFGGGTKVEIKRTVAAPSVFIFPPSDEQLKSGTASVVCLLNNFYPREAKVQWKVDNALQSGNSQESVTEQDSKDSTYSLSSTLTLSKADYEKHKVYACEVTHQGLSSPVTKSFNRGEC
notes: as m25, ECD of CD80; also called VHprot+VL (CD80); VH-CD80
Take B1: the binding result in test [1] was “binds”. The EC50 (read off the curve) (usually the midpoint of the concentration-response curve) in [2] was around 8 ng/mL.

B2: modified anti-SIRPa HEFLB antibody with ECD of OX40L on the heavy chain (antibody, human IgG4 S228P, kappa)
heavy: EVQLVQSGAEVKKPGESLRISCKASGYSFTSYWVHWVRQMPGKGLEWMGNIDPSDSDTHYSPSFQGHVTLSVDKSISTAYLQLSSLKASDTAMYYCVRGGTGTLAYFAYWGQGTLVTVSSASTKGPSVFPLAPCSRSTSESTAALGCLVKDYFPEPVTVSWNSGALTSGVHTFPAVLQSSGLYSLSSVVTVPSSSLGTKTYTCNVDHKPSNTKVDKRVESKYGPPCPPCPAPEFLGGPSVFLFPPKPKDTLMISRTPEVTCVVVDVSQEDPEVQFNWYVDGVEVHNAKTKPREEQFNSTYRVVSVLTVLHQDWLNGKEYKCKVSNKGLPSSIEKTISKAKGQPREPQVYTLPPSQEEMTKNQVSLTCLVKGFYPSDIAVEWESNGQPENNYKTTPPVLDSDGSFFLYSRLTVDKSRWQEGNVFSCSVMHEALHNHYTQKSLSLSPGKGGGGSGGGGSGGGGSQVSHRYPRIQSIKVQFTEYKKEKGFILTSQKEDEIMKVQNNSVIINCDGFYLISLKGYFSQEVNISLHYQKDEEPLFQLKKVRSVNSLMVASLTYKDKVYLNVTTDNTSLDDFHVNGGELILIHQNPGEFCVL
light: B1 light
notes: as m25, ECD of OX40L; also called VHprot+VL (OX40L); HEF-OX40L + LB
On to B2, for which the binding result in [3] and in test [4] was “binds” each time.

B3: HFLA (antibody, human IgG4 S228P, kappa, V domains shown)
VH: EVQLVQSGAEVKKPGESLRISCKASGYSFTSYWVHWVRQMPGKGLEWMGNIDPSDSDTHYSPSFQGHVTLSVDKSISTAYLQLSSLKASDTAMYYCVRGGTGTMAYFAYWGQGTLVTVSS
VL: DVVMTQSPLSLPVTLGQPASISCRSSQSLVHSYGNTYLYWYQQRPGQSPRLLIYRVSNRFSGVPDRFSGSGSGTDFTLKISRVEAEDVGVYFCFQGTHVPYTFGGGTKVEIKR
notes: humanized 18D5 variant
For B3, the figures for the Kd in [5], in [6] and in test [9] were 0.217 nM, 47.6 nM and 25.8 nM, respectively. The koff (usually a measure of how fast the partners let go of each other) was 0.000186 s⁻¹ in test [5], 0.0118 s⁻¹ in test [6] and 0.00192 s⁻¹ in test [9]. Moreover, the kon – broadly, the rate constant with which the complex forms – came to 857000 M⁻¹ s⁻¹ in test [5], 248000 M⁻¹ s⁻¹ in test [6] and 74500 M⁻¹ s⁻¹ in test [9]. For the same molecule, the EC50 (commonly the concentration at which the effect is half-maximal) in test [7] stood at 5.1 ng/mL; in test [8], 4.61 ng/mL. Besides, the IC50 (commonly the concentration needed to halve the response being measured) in test [10] was determined as 146 ng/mL.

B4: HCLB (antibody, human IgG4 S228P, kappa, V domains shown)
VH: B3 VH with Y106W
VL: B3 VL with Y41F, F92Y
notes: humanized 18D5 variant; also called humanized 18D5 variant HCLB
As to B4, the EC50 in test [8] is 5.59 ng/mL.

B5: HALA (antibody, human IgG4 S228P, kappa, V domains shown)
VH: B3 VH with S28T, M48I, S61N, P62Q, S63K, Q65K, G66D, Y106W
VL: B3 VL
notes: humanized 18D5 variant; also called humanized 18D5 variant HALA
For the molecule B5, in test [6], the Kd (usually the free concentration of one partner at which half of the binding sites on the other are occupied at equilibrium, for simple one-to-one binding) was determined as 46.1 nM; the dissociation rate constant (koff) came to 0.00709 s⁻¹; the association rate constant (kon) stood at 154000 M⁻¹ s⁻¹. The EC50 in test [7] worked out at 3.9 ng/mL. For the same molecule, in test [9], the Kd came to 6.4 nM, the koff was determined as 0.00085 s⁻¹ and the kon was found to be 133000 M⁻¹ s⁻¹.

B6: HBLA (antibody, human IgG4 S228P, kappa, V domains shown)
VH: B3 VH with S61N, P62Q, S63K, Q65K, G66D, Y106W
VL: B3 VL
notes: humanized 18D5 variant; also called humanized 18D5 variant HBLA
In the case of B6, the EC50 in [11] was 2.68 ng/mL.

B7: HBLB (antibody, human IgG4 S228P, kappa, V domains shown)
VH: B3 VH with S61N, P62Q, S63K, Q65K, G66D, Y106W
VL: B3 VL with Y41F, F92Y
notes: humanized 18D5 variant; also called humanized 18D5 variant HBLB
With B7, in test [11], the EC50 was 2.95 ng/mL.

B8: HALB (antibody, human IgG4 S228P, kappa, V domains shown)
VH: B3 VH with S28T, M48I, S61N, P62Q, S63K, Q65K, G66D, Y106W
VL: B3 VL with Y41F, F92Y
notes: humanized 18D5 variant; also called humanized 18D5 variant HALB
Regarding B8, the EC50 in test [11] stood at 2.53 ng/mL.

B9: HELB (antibody, human IgG4 S228P, kappa, V domains shown)
VH: B3 VH with M104L, Y106W
VL: B3 VL with Y41F, F92Y
notes: humanized 18D5 variant; also called humanized 18D5 variant HELB
Take B9: in [8], the EC50 was 4.13 ng/mL.

B10: HEFLA (antibody, human IgG4 S228P, kappa, V domains shown)
VH: B3 VH with M104L
VL: B3 VL
notes: humanized 18D5 variant
For the molecule B10, in test [5], the dissociation constant Kd was 0.264 nM, the koff worked out at 0.000148 s⁻¹ and the kon was found to be 559000 M⁻¹ s⁻¹. Moreover, in [6], the Kd was 52.4 nM, the koff came to 0.0114 s⁻¹ and the on-rate constant (kon) was 217000 M⁻¹ s⁻¹. Besides, in test [7], the concentration for a half-maximal effect (EC50) was found to be 7.1 ng/mL. Moreover, in test [9], the Kd stood at 12.4 nM, the dissociation rate constant (koff) was 0.00122 s⁻¹ and the kon was determined as 98300 M⁻¹ s⁻¹. Also, the IC50 in [10] was determined as 191 ng/mL.

B11: modified anti-SIRPa HEFLB antibody with ECD of CD80 on the light chain (antibody, human IgG4 S228P, kappa)
heavy: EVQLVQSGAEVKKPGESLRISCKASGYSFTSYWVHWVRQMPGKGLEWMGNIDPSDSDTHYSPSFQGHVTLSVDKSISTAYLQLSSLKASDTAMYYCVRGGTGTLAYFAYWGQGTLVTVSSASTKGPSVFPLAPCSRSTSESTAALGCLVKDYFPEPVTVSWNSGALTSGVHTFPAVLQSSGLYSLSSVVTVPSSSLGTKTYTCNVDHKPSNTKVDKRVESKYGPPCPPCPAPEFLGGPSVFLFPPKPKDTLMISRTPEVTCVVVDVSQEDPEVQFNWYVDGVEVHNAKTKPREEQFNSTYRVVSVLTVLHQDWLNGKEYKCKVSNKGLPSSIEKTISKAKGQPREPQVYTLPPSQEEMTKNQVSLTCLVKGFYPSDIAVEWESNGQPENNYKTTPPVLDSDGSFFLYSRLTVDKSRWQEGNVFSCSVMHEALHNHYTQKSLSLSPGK
light: DVVMTQSPLSLPVTLGQPASISCRSSQSLVHSYGNTYLYWFQQRPGQSPRLLIYRVSNRFSGVPDRFSGSGSGTDFTLKISRVEAEDVGVYYCFQGTHVPYTFGGGTKVEIKRTVAAPSVFIFPPSDEQLKSGTASVVCLLNNFYPREAKVQWKVDNALQSGNSQESVTEQDSKDSTYSLSSTLTLSKADYEKHKVYACEVTHQGLSSPVTKSFNRGECGGGGSGGGGSGGGGSVIHVTKEVKEVATLSCGHNVSVEELAQTRIYWQKEKKMVLTMMSGDMNIWPEYKNRTIFDITNNLSIVILALRPSDEGTYECVVLKYEKDAFKREHLAEVTLSVKADFPTPSISDFEIPTSNIRRIICSTSGGFPEPHLSWLENGEELNAINTTVSQDPETELYAVSSKLDFNMTTNHSFMCLIKYGHLRVNQTFNWNTTKQEHFPDN
notes: as m32, ECD of CD80; also called VH+VLprot (CD80); HEF + LB-CD80
Consider B11, for which the binding result in test [1] is recorded as “binds”. Besides, the “EC50 (read off the curve)” value in [2] was around 8 ng/mL.

For the origin of these results see patent US20210179728A1 (OSE IMMUNOTHERAPEUTICS, published 2021).
